In article PMC3814758, “The Geminin and Idas Coiled Coils Preferentially Form a Heterodimer That Inhibits Geminin Function in DNA Replication Licensing*” (The Journal of Biological Chemistry, 2013):

What was measured:
[1] = molecular target: T1, Cdt1 (115-353) (UniProt Q9H211 115-353); test: ITC
T1 chain: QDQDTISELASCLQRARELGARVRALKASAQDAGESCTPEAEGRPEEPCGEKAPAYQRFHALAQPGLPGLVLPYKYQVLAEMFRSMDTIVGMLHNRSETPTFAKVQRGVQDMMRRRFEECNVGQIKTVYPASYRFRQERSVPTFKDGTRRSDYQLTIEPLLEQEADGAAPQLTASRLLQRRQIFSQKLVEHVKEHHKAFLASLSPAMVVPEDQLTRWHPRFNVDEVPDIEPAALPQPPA

[2] = molecular target: Cdt1 (115-353) (UniProt Q9H211)
[3] = molecular target: Cdt1 (115-353) (UniProt Q9H211); test: ITC; 25 °C; 25 mM HEPES/NaOH pH 7.5, 150 mM NaCl, 0.5 mM Tris(2-carboxyethyl)phosphine; 28 injections of 10 μl of the protein dimers (2-80 μM) into 1.4 ml of Cdt1 (0.2-10 μM)
[4] = molecular target: T2, Cdt1 (115-353) (UniProt Q9H211 115-353); test: cell-based or functional assay
T2 sequence (looked up): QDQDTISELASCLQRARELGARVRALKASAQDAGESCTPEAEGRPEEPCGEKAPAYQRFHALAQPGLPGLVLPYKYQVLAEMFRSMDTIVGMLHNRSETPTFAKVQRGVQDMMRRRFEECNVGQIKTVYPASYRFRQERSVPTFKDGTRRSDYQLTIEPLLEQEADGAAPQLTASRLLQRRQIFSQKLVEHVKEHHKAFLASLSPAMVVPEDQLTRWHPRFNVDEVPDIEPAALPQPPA

[5] = molecular target: T2, Cdt1 (115-353); test: ITC; 25 °C; 25 mM HEPES/NaOH pH 7.5, 150 mM NaCl, 0.5 mM Tris(2-carboxyethyl)phosphine; 28 injections of 10 μl of the protein dimers (2-80 μM) into 1.4 ml of Cdt1 (0.2-10 μM); settings: both partners purified
[6] = molecular target: the molecule itself; test: SAXS; purified complexes at three concentrations each (0.5, 1.0, 2.5 mg/ml tGeminin-tGeminin; 1.0, 2.0, 6.0 mg/ml tIdas-tIdas and tIdas-tGeminin); X13 beamline, EMBL-Hamburg; Guinier plot and distance distribution

B1: tGeminin-tGeminin homodimer (complex)
chain: TQESFDLMIKENPSSQYWKEVAEKRRKALYEALKENEKLHKEIEQKDNEIARLKKENKELAEVAEHVQYMAELIERLNG
[1]
  Kd: 2.6 nM
[2]
  IC50 of inhibition of replication licensing and DNA replication of sperm DNA in Xenopus egg extract (Cdt1 of the extract), increasing concentrations of the dimer: 50 nM
[3]
  Kd: 3.5 nM

B2: tIdas-tGeminin heterodimer (complex)
chain 1: PDVPPPEQYWKEVADQNQRALGDALVENNQLHVTLTQKQEEIASLKERNVQLKELASRTRHLASVLDKLMITQ
chain 2: TQESFDLMIKENPSSQYWKEVAEKRRKALYEALKENEKLHKEIEQKDNEIARLKKENKELAEVAEHVQYMAELIERLNG
notes: Idas (Multicilin), residues 173-245; Geminin, human, residues 82-160; Preformed heterodimer; also called tGeminin-tIdas; Idas-Geminin heterodimer; source: co-expression in Escherichia coli, purified (IMAC by the His tag on Idas, size exclusion chromatography); copies: 1 + 1
[4]
  IC50 of inhibition of replication licensing and DNA replication of sperm DNA in Xenopus egg extract (Cdt1 of the extract), increasing concentrations of the dimer: ~720 nM
[5]
  Kd: ~35 nM
  dH less favourable than for tGeminin-tGeminin binding to Cdt1: 21.1 kcal/mol

B3: tGeminin, coiled-coil domain of Geminin (residues 82-160) (domain or fragment, human, UniProt O75496 82-160, looked up)
chain: TQESFDLMIKENPSSQYWKEVAEKRRKALYEALKENEKLHKEIEQKDNEIARLKKENKELAEVAEHVQYMAELIERLNG
notes: Geminin, human, residues 82-160 (coiled-coil construct tGeminin); Single chain, used for the rows of tGeminin with itself and with tIdas; Cloned both with a cleavable His tag and without tag; In the co-expressed complex the tag was on Idas; source: expressed on its own, or co-expressed with Idas in Escherichia coli; purified
[6]
  stoichiometry N: 2

B4: tIdas, coiled-coil domain of Idas (residues 173-245) (domain or fragment, UniProt D6RGH6 173-245, looked up)
chain: PDVPPPEQYWKEVADQNQRALGDALVENNQLHVTLTQKQEEIASLKERNVQLKELASRTRHLASVLDKLMITQ
notes: Idas (Multicilin), residues 173-245 (coiled-coil construct tIdas); Single chain, used for the rows of tIdas with itself and with tGeminin; Cleavable His tag; also called Multicilin; source: expressed on its own, or co-expressed with Geminin in Escherichia coli; purified
[6]
  stoichiometry N: 2
